The record followed here is patent US20260109763A1, “ANTI-PILRA ANTIBODIES, USES THEREOF, AND RELATED METHODS AND REAGENTS” (DENALI THERAPEUTICS INC., priority 2021, published 2026).

The target of assay [1] is human PILRA R78 on cells (human) (UniProt Q9UKJ1). Put plainly: target engagement in brain lysate of human PILRA (R78) BACtg mice, 4 days after dosing; MSD assay, bound versus total PILRA.
The target is the same in assay [2]. Put plainly: target engagement in brain lysate of human PILRA (R78) BACtg mice, 1 day after dosing; MSD assay, bound versus total PILRA.

human PILRA R78 on cells (human), sequence (Q9UKJ1 20-303 limits assumed): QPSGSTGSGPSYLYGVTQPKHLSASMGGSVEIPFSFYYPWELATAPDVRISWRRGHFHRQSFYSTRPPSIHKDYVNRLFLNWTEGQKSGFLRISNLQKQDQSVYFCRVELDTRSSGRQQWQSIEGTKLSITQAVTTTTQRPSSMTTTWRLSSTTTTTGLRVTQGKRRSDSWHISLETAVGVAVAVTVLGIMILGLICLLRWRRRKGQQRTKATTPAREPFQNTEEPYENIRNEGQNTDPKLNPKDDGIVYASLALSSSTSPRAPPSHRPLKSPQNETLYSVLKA

In assay [1], isotype control antibody displayed a percent of brain human PILRA bound, 4 days of 16%. Also, the percent of brain human PILRA bound, 1 day in assay [2] came to 17%.
